According to patent US20260242478A1 (published 2026):

B1: Phage-3044 (peptide)
peptide: SLAVCKPSWMCAGF
notes: Peptide-180 library clone, tested as clonal phage supernatant (pIII display)
B2: Phage-3039 (peptide)
peptide: VHNWCVPSWMCLGL
notes: as for B1
B3: Phage-3051 (peptide)
peptide: PGQVCIPEWMCTGF
notes: Peptide-180 library clone, tested as clonal phage supernatant (peptide fused to pIII of the bacteriophage)
B4: Phage-3059 (peptide)
peptide: EFAMCRPVWMCWGF
notes: as for B3
B5: Phage-3040 (peptide)
peptide: DYPLCRPEWMCMGF
notes: as for B1
B6: Phage-3045 (peptide)
peptide: VIGWCVPQWMCSGF
notes: as for B1
B7: Phage-3049 (peptide)
peptide: VNVKCTPPWMCFGF
notes: as for B3
B8: Phage-3046 (peptide)
peptide: VDKVCRPMWMCAGF
notes: as for B3
B9: Phage-3043 (peptide)
peptide: PTVYCKPEWMCTGF
notes: as for B1
B10: Phage-3056 (peptide)
peptide: IEMMCRPSWMCDWL
notes: as for B3
B11: Phage-3057 (peptide)
peptide: TGPVCIPKWMCFGF
notes: as for B3
B12: Phage-3047 (peptide)
peptide: VGNMCVPEWMCVGF
notes: as for B3
B13: Phage-3055 (peptide)
peptide: PVELCRPAWMCWGF
notes: as for B3
B14: Phage-3041 (peptide)
peptide: EHLRCVPDWMCVGF
notes: as for B1
B15: Phage-3052 (peptide)
peptide: DMRLCRPVWMCEGF
notes: as for B3
B16: Phage-3053 (peptide)
peptide: VAPSCVPLWMCVGM
notes: as for B3
B17: Phage-3054 (peptide)
peptide: DWIRCLPAWMCTGF
notes: as for B3
B18: Phage-3058 (peptide)
peptide: DWVRCVPEWMCLGF
notes: as for B3
B19: Phage-3038 (peptide)
peptide: VEPQCRPAWMCYGF
notes: as for B1
B20: Phage-3042 (peptide)
peptide: YTMVCRPAWMCQGF
notes: as for B1
B21: Phage-3037 (peptide)
peptide: PAVRCEPSWMCQGF
notes: as for B1
B22: Phage-3048 (peptide)
peptide: PGHVCRPAWMCEGF
notes: as for B3
B23: Phage-3050 (peptide)
peptide: ELYKCVPSWMCYGF
notes: as for B3

What was measured:
PSMA Fab [1] = biological target: T1, PSMA Fab; assay: clonal phage ELISA on captured PSMA Fab pre-incubated with PSMA antigen (competitor)
T1 construct: Biotinylated and captured on neutravidin plates in the phage ELISA; also called Anti-PSMA Fab; 006 PSMA Fab
Protocol: (§1) Clonal phage were harvested as crude supernatants and screened via standard ELISAs. […] Prior to the addition of clonal phage. wells were incubated with blocking buffer and PSMA antigen or blocking buffer alone. Without washing or aspirating, clonal phage supernatants were then added to the wells and incubated for a short time. Wells were then washed followed by detection of bound phage using a horse radish conjugated anti-M13 antibody.

PSMA Fab [2] = biological target: T1, PSMA Fab; assay: clonal phage ELISA on biotinylated PSMA Fab captured on neutravidin, anti-M13 HRP detection;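 further: crude clonal phage supernatants added to wells pretreated with PSMA antigen in blocking buffer or with blocking buffer only, then briefly incubated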
Protocol: as §1

PSMA Fab (006 PSMA Fab) [3] = biological target: T2, PSMA Fab (006 PSMA Fab); assay: phage ELISA; biotinylated PSMA Fab on neutravidin plate, clonal phage supernatant, anti-M13 HRP detection; blocking buffer alone
T2 construct: also called Anti-PSMA Fab; anti-PSMA Fab
Protocol: as §1

PSMA Fab (006 PSMA Fab) [4] = biological target: T2, PSMA Fab (006 PSMA Fab); assay: phage ELISA; biotinylated PSMA Fab on neutravidin plate pre-incubated with PSMA antigen as competitor, clonal phage supernatant, anti-M13 HRP detection
Protocol: as §1

PSMA Fab (006 PSMA Fab) [5] = biological target: T3, PSMA Fab (006 PSMA Fab) (Fab biotinylated for capture on neutravidin plates (site not stated)); assay: phage ELISA: clonal phage supernatant on biotinylated PSMA Fab captured on neutravidin plate, blocking buffer alone, anti-M13-HRP detection
T3 construct: also called Anti-PSMA Fab; anti-PSMA Fab

PSMA Fab (006 PSMA Fab) [6] = biological target: T3, PSMA Fab (006 PSMA Fab); assay: phage ELISA: clonal phage supernatant on biotinylated PSMA Fab captured on neutravidin plate, wells pre-incubated with PSMA antigen as competitor, anti-M13-HRP detection
Protocol: as §1

006 PSMA Fab [7] = biological target: T4, 006 PSMA Fab; assay: clonal phage ELISA on biotinylated PSMA Fab captured on neutravidin, anti-M13 HRP detection, no competitor
T4 construct: In the phage ELISA the Fab was biotinylated and captured on neutravidin coated plates; also called Anti-PSMA Fab
Protocol: as §1

006 PSMA Fab [8] = biological target: T4, 006 PSMA Fab; assay: clonal phage ELISA on biotinylated PSMA Fab captured on neutravidin, wells pre-incubated with PSMA antigen as competitor, anti-M13 HRP detection
Protocol: as §1

Row | Binder | Phage binding ELISA signal, Anti-PSMA Fab (PSMA Fab (006 PSMA Fab) [3]) | Phage binding ELISA signal, Anti-PSMA Fab in the presence of PSMA antigen (PSMA Fab (006 PSMA Fab) [4]) | Phage binding ELISA signal, Anti-PSMA Fab (006 PSMA Fab [7]) | Phage binding ELISA signal, Anti-PSMA Fab with PSMA antigen (006 PSMA Fab [8]) | other results
1 | B1 | – | – | – | – | Phage binding ELISA signal, Anti-PSMA Fab with PSMA antigen (PSMA Fab [1]): 0.0813; Phage binding ELISA signal, Anti-PSMA Fab (PSMA Fab [2]): 2.17
2 | B2 | – | – | – | – | Phage binding ELISA signal, Anti-PSMA Fab with PSMA antigen (PSMA Fab [1]): 0.099; Phage binding ELISA signal, Anti-PSMA Fab (PSMA Fab [2]): 2.18
3 | B3 | 2.16 | 0.0874 | – | – | –
4 | B4 | 2.15 | 0.142 | – | – | –
5 | YEQLCKPLWMCQGF [Phage-3075 (peptide-180 library clone)] | – | – | – | – | Phage binding ELISA signal, Anti-PSMA Fab (PSMA Fab (006 PSMA Fab) [5]): 2.12; Phage binding ELISA signal, Anti-PSMA Fab in presence of PSMA (PSMA Fab (006 PSMA Fab) [6]): 0.0628
6 | B5 | – | – | – | – | Phage binding ELISA signal, Anti-PSMA Fab with PSMA antigen (PSMA Fab [1]): 0.0813; Phage binding ELISA signal, Anti-PSMA Fab (PSMA Fab [2]): 2.18
7 | LLAECVAAWMCSGF [Phage-3067] | – | – | 2.13 | 0.0712 | –
8 | GMVRCVPQWMCVGF [Phage-3065] | – | – | 2.14 | 0.111 | –
9 | DEWICRPAWMCQGF [Phage-3076 (peptide-180 library clone)] | – | – | – | – | Phage binding ELISA signal, Anti-PSMA Fab (PSMA Fab (006 PSMA Fab) [5]): 2.12; Phage binding ELISA signal, Anti-PSMA Fab in presence of PSMA (PSMA Fab (006 PSMA Fab) [6]): 0.0632
10 | IMMRCEPVWMCEGF [Phage-3072] | – | – | 2.13 | 0.118 | –
11 | B6 | – | – | – | – | Phage binding ELISA signal, Anti-PSMA Fab with PSMA antigen (PSMA Fab [1]): 0.113; Phage binding ELISA signal, Anti-PSMA Fab (PSMA Fab [2]): 2.17
12 | ITKACIPEWMCHAF [Phage-3061] | – | – | 2.15 | 0.0651 | –
13 | B7 | 2.16 | 0.0865 | – | – | –
14 | B8 | 2.17 | 0.126 | – | – | –
15 | EEKMCVPLWMCSGF [Phage-3060] | – | – | 2.15 | 0.0787 | –
16 | ISPVCIPSWMCLGL [Phage-3069] | – | – | 2.13 | 0.174 | –
17 | B9 | – | – | – | – | Phage binding ELISA signal, Anti-PSMA Fab with PSMA antigen (PSMA Fab [1]): 0.0869; Phage binding ELISA signal, Anti-PSMA Fab (PSMA Fab [2]): 2.17
18 | B10 | 2.16 | 0.0844 | – | – | –
19 | VNHLCKPTWMCAGF [Phage-3077 (peptide-180 library clone)] | – | – | – | – | Phage binding ELISA signal, Anti-PSMA Fab (PSMA Fab (006 PSMA Fab) [5]): 2.12; Phage binding ELISA signal, Anti-PSMA Fab in presence of PSMA (PSMA Fab (006 PSMA Fab) [6]): 0.0765
20 | B11 | 2.15 | 0.075 | – | – | –
21 | VERSCVPSWMCYGF [Phage-3066] | – | – | 2.14 | 0.0806 | –
22 | LSHMCRPAWMCEGF [Phage-3068] | – | – | 2.13 | 0.0938 | –

Row | Binder | Phage binding ELISA signal, Anti-PSMA Fab (PSMA Fab (006 PSMA Fab) [3]) | Phage binding ELISA signal, Anti-PSMA Fab in the presence of PSMA antigen (PSMA Fab (006 PSMA Fab) [4]) | Phage binding ELISA signal, Anti-PSMA Fab (006 PSMA Fab [7]) | Phage binding ELISA signal, Anti-PSMA Fab with PSMA antigen (006 PSMA Fab [8]) | other results
23 | B12 | 2.17 | 0.0878 | – | – | –
24 | B13 | 2.16 | 0.103 | – | – | –
25 | B14 | – | – | – | – | Phage binding ELISA signal, Anti-PSMA Fab with PSMA antigen (PSMA Fab [1]): 0.0886; Phage binding ELISA signal, Anti-PSMA Fab (PSMA Fab [2]): 2.17
26 | B15 | 2.16 | 0.13 | – | – | –
27 | B16 | 2.16 | 0.68 | – | – | –
28 | SPYFCIPAWMCHGF [Phage-3071] | – | – | 2.13 | 0.121 | –
29 | EWMKCVPLWMCEGI [Phage-3080 (peptide-180 library clone)] | – | – | – | – | Phage binding ELISA signal, Anti-PSMA Fab (PSMA Fab (006 PSMA Fab) [5]): 2.11; Phage binding ELISA signal, Anti-PSMA Fab in presence of PSMA (PSMA Fab (006 PSMA Fab) [6]): 0.0802
30 | B17 | 2.16 | 0.0848 | – | – | –
31 | B18 | 2.15 | 0.106 | – | – | –
32 | B19 | – | – | – | – | Phage binding ELISA signal, Anti-PSMA Fab with PSMA antigen (PSMA Fab [1]): 0.0668; Phage binding ELISA signal, Anti-PSMA Fab (PSMA Fab [2]): 2.18
33 | B20 | – | – | – | – | Phage binding ELISA signal, Anti-PSMA Fab with PSMA antigen (PSMA Fab [1]): 0.0964; Phage binding ELISA signal, Anti-PSMA Fab (PSMA Fab [2]): 2.17
34 | VEIQCRPSWMCMGF [Phage-3063] | – | – | 2.14 | 0.0951 | –
35 | TYMMCVPEWMCQGF [Phage-3078 (peptide-180 library clone)] | – | – | – | – | Phage binding ELISA signal, Anti-PSMA Fab (PSMA Fab (006 PSMA Fab) [5]): 2.11; Phage binding ELISA signal, Anti-PSMA Fab in presence of PSMA (PSMA Fab (006 PSMA Fab) [6]): 0.101
36 | WLMRCEPQWMCAGF [Phage-3073] | – | – | 2.12 | 0.131 | –
37 | VVPMCSPSWMCQGF [Phage-3064] | – | – | 2.14 | 0.0725 | –
38 | B21 | – | – | – | – | Phage binding ELISA signal, Anti-PSMA Fab with PSMA antigen (PSMA Fab [1]): 0.161; Phage binding ELISA signal, Anti-PSMA Fab (PSMA Fab [2]): 2.18
39 | VQVLCVPSWMCHGF [Phage-3062] | – | – | 2.15 | 0.0688 | –
40 | LEKACVPQWMCYGL [Phage-3070] | – | – | 2.13 | 0.0938 | –
41 | HLMACKPAWMCLGL [Phage-3079 (peptide-180 library clone)] | – | – | – | – | Phage binding ELISA signal, Anti-PSMA Fab (PSMA Fab (006 PSMA Fab) [5]): 2.11; Phage binding ELISA signal, Anti-PSMA Fab in presence of PSMA (PSMA Fab (006 PSMA Fab) [6]): 0.135
42 | B22 | 2.17 | 0.106 | – | – | –
43 | B23 | 2.16 | 0.0696 | – | – | –
44 | TASWCKPGGACKGF [Phage-3074 (peptide-180 library clone)] | – | – | – | – | Phage binding ELISA signal, Anti-PSMA Fab (PSMA Fab (006 PSMA Fab) [5]): 2.12; Phage binding ELISA signal, Anti-PSMA Fab in presence of PSMA (PSMA Fab (006 PSMA Fab) [6]): 0.0801
